Assay results published in US20240317844A1.

Biological target: survivin (UniProt O15392)
Assay: method not stated

B1: mAb 2C2E7 (antibody, V domains shown)
VH: QIQLVQSGPELKKPGETVKISCKASGYTFTTYGMSWVKQAPGRGLKWMGWINPYSGVPTYAVDFKGRFAFSLETSASTAYLQINNLKNEDTATYFCARGGRRGDFGYWGQGTTLTVSS
VL: QIGLTQSPAIMSASPGEKVTMTCSASSSISYMHWYQQKPGTSPKTWIYDTSKLASGVPARFSGSGSGTSYSLTISSMEAEDAATYYCHQRSSHHTFGGGTKLEIK
**Q.** How did the Kd turn out when B1 was run?
**A.** The Kd was 0.56 nM.
